Variants at the floor of the assay were thinned out.
Columns and labels:
biotinyl-Phe-oxazolone = assay: self-aminoacylation, catalytic enhancement (BFO) (fold over background); higher = more active; k-Seq, kA / k0A0; sequences stand for … in GGGAAUGGAUCCACAUCUACGAAUUC…UUCACUGCAGACUUGACGAAGCUG
Method in brief: (§1)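 Mutagenized RNA pools with a 21-nt variable region (0.43 μM) were reacted with each biotinyl-aminoacyl-oxazolone at 2–1250 μM for 90 minutes at room temperature, in 50 μL HEPES/NaCl/KCl/MgCl2/CaCl2 buffer containing 5% acetonitrile at pH 6.9–7.0. RNA captured on streptavidin was quantified by triplicate qPCR and by Illumina sequencing. The fraction reacted for each sequence was fit to a pseudo-first-order model with bootstrapping, and catalytic enhancement is the median kA divided by the uncatalyzed rate, taken as the low-activity peak of a bimodal Gaussian fit.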

biotinyl-Leu-oxazolone = assay: self-aminoacylation, catalytic enhancement (BLO) (fold over background); higher = more active; k-Seq, kA / k0A0; sequences stand for … in GGGAAUGGAUCCACAUCUACGAAUUC…UUCACUGCAGACUUGACGAAGCUG
Method in brief: as §1

biotinyl-Trp-oxazolone = assay: self-aminoacylation, catalytic enhancement (BWO) (fold over background); higher = more active; k-Seq, kA / k0A0; sequences stand for … in GGGAAUGGAUCCACAUCUACGAAUUC…UUCACUGCAGACUUGACGAAGCUG
Method in brief: as §1

biotinyl-Ile-oxazolone = assay: self-aminoacylation, catalytic enhancement (BIO) (fold over background); higher = more active; k-Seq, kA / k0A0; sequences stand for … in GGGAAUGGAUCCACAUCUACGAAUUC…UUCACUGCAGACUUGACGAAGCUG
Method in brief: as §1

biotinyl-Met-oxazolone = assay: self-aminoacylation, catalytic enhancement (BMO) (fold over background); higher = more active; k-Seq, kA / k0A0; sequences stand for … in GGGAAUGGAUCCACAUCUACGAAUUC…UUCACUGCAGACUUGACGAAGCUG
Method in brief: as §1

biotinyl-Val-oxazolone = assay: self-aminoacylation, catalytic enhancement (BVO) (fold over background); higher = more active; k-Seq, kA / k0A0; sequences stand for … in GGGAAUGGAUCCACAUCUACGAAUUC…UUCACUGCAGACUUGACGAAGCUG
Method in brief: as §1

Sequence	self-aminoacylation (biotinyl-Phe-oxazolone)	self-aminoacylation (biotinyl-Leu-oxazolone)	self-aminoacylation (biotinyl-Trp-oxazolone)	self-aminoacylation (biotinyl-Ile-oxazolone)	self-aminoacylation (biotinyl-Met-oxazolone)	self-aminoacylation (biotinyl-Val-oxazolone)
GUUACCCUGGUCGUCGAGUGA [Fam2.1 aminoacylation ribozyme variant]	9.01	1.9	2.24	1.5	2.13	1.6
GUUACCCUGGUCUUCGAGUGA [Fam2.1 aminoacylation ribozyme variant]	50.7	8.79	10.1	4.45	8.47	5.01
GUUACCCUGGUGAUCGAGUGA [Fam2.1 aminoacylation ribozyme variant]	34.8	7.43	8.86	3.37	6.75	3.33
GUUACGCUGGUCAUCGAGUGA [Fam2.1 aminoacylation ribozyme variant]	59.2	8.34	10.6	5.57	7.2	4.86
GUUCAACUAGGUCAUCGGGUG [Fam2.2 aminoacylation ribozyme variant]	42.6	6.94	6.75	4.28	5.04	4.16
GUUCACCUAAGUCAUCGGGUG [Fam2.2 aminoacylation ribozyme variant]	51.4	9.78	7.87	5.38	7.53	5.4
GUUCACCUAGGACAUCGGGUG [Fam2.2 aminoacylation ribozyme variant]	16.3	4.61	5.67	3.61	3.24	3.56
GUUCACCUAGGUCAUCGGUUG [Fam2.2 aminoacylation ribozyme variant]	2.93	1.38	1.41	1.17	1.09	1.11
GUUCACCUAGGUCUUCGGGUG [Fam2.2 aminoacylation ribozyme variant]	33.8	5.73	5.22	3.83	4.89	4.05
GUUCACCUAGGUUAUCGGGUG [Fam2.2 aminoacylation ribozyme variant]	34	4.08	5.35	3.41	4.84	3.44
GUUCACCUAGUUCAUCGGGUG [Fam2.2 aminoacylation ribozyme variant]	15.4	2.37	4.15	2.79	2.66	2.9
GUUCACCUCGGUCAUCGGGUG [Fam2.2 aminoacylation ribozyme variant]	28.6	4.52	3.77	3.61	4.1	4.29
GUUCACCUGGGUCAUCGGGUG [Fam2.2 aminoacylation ribozyme variant]	39.4	5.35	8.32	4.47	5.48	5.58
GUUCCCCUGGUCAUCGAGUGA [Fam2.1 aminoacylation ribozyme variant]	43.4	6.48	7.5	3.35	5.84	3.82
GUUGACCUAGGUCAUCGGGUG [Fam2.2 aminoacylation ribozyme variant]	20	5.05	5.59	4.11	3.52	3.67
GUUUACCUAGGUCAUCGGGUG [Fam2.2 aminoacylation ribozyme variant]	201	39.7	23.9	16.2	29	14.1
UAGUUAGCUAAUAGUCGCAAG [Fam3.1 aminoacylation ribozyme variant]	2.37	1.8	1.11	1.72	2.06	1.52
UAGUUUACUAAUAGUCGCAAG [Fam3.1 aminoacylation ribozyme variant]	2.86	1.36	1.65	1.45	1.41	1.48
UAGUUUGCCAAUAGUCGCAAG [Fam3.1 aminoacylation ribozyme variant]	2.96	1.87	1.99	1.61	1.77	1.61
UAGUUUGCUAAGAGUCGCAAG [Fam3.1 aminoacylation ribozyme variant]	1.77	0.952	1.22	1.12	1.1	1.18
UAGUUUGCUAAUAAUCGCAAG [Fam3.1 aminoacylation ribozyme variant]	1.77	0.887	0.875	1.11	1.04	1.12
UAGUUUGCUAAUAGUCACAAG [Fam3.1 aminoacylation ribozyme variant]	5.1	1.76	2.38	1.41	1.51	1.31
UAGUUUGCUAAUCGUCGCAAG [Fam3.1 aminoacylation ribozyme variant]	1.65	1.11	1.59	1.62	1.51	1.31
UAGUUUGCUAGUAGUCGCAAG [Fam3.1 aminoacylation ribozyme variant]	1.53	1.1	0.854	1.09	1.17	0.974
UCACAAUUCAAGCAAUCGGUC [Fam1B.1 aminoacylation ribozyme variant]	1.8	0.949	1.39	1.04	0.989	0.986
UCACACUUCAAACAAUCGGUC [Fam1B.1 aminoacylation ribozyme variant]	89.1	2.25	42.8	1.34	1.66	1.55

Source: the supplement of paper PMC9233669
